Test results published in paper PMC11695723, “MCM2-7 ring closure involves the Mcm5 C-terminus and triggers Mcm4 ATP hydrolysis” (Nature Communications, 2025).

What was measured:
Conditions in all cases: both partners purified
[1] = target: T1, Mcm5 (S. cerevisiae, UniProt P29496 1-775); assay: cryo-EM structure; closed-gate OCCM (ORC-Cdc6-Cdt1-MCM2-7) on ARS1 DNA with ATPγS; focused 3D classification of the particles of ref. 13; about 10% of the particles; 6.1 Å
T1 construct: Mcm5, S. cerevisiae; subunit of the MCM2-7 hexamer; source: S. cerevisiae, galactose-induced, purified as a subunit of MCM2-7 (anti-HA beads, HA peptide, gel filtration)
T1 sequence: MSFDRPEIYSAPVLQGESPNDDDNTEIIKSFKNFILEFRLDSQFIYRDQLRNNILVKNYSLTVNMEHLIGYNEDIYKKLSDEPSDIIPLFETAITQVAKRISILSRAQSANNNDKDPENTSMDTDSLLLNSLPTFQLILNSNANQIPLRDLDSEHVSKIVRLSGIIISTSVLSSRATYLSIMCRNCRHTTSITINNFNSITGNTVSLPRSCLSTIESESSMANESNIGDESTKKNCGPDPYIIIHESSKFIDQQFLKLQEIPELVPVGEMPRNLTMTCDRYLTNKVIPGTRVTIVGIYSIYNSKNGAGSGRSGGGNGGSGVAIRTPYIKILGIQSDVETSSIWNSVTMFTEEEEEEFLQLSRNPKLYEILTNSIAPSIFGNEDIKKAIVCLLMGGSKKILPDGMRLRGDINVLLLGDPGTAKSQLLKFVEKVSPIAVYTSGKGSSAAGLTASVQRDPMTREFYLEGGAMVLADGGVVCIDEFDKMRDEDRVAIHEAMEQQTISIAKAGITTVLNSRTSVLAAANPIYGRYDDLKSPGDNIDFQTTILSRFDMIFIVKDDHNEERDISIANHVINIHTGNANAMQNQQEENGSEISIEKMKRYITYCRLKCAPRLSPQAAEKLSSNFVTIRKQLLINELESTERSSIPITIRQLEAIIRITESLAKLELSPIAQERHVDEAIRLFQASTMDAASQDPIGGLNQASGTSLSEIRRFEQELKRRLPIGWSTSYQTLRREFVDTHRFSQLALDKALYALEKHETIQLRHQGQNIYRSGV

[2] = target: T2, Mcm3 (HA-tagged) (S. cerevisiae, UniProt P24279 1-971); assay: pull-down; 150 nM MCM2-7 alone in pre-RC buffer, bound to anti-HA magnetic beads by the HA-tag on Mcm3, low salt wash (pre-RC buffer), HA peptide elution, silver stain
T2 construct: Mcm3, S. cerevisiae; subunit of the MCM2-7 hexamer; bait of the anti-HA bead pulldowns; source: S. cerevisiae, galactose-induced, purified as a subunit of MCM2-7 (anti-HA beads, HA peptide, gel filtration)

[3] = target: T3, Mcm4 (S. cerevisiae, UniProt P30665 1-933); assay: cryo-EM structure; closed-gate OCCM (ORC-Cdc6-Cdt1-MCM2-7) on ARS1 DNA with ATPγS; focused 3D classification of the particles of ref. 13; about 10% of the particles; 6.1 Å
T3 construct: Mcm4, S. cerevisiae; subunit of the MCM2-7 hexamer; source: S. cerevisiae, galactose-induced, purified as a subunit of MCM2-7 (anti-HA beads, HA peptide, gel filtration)
T3 sequence: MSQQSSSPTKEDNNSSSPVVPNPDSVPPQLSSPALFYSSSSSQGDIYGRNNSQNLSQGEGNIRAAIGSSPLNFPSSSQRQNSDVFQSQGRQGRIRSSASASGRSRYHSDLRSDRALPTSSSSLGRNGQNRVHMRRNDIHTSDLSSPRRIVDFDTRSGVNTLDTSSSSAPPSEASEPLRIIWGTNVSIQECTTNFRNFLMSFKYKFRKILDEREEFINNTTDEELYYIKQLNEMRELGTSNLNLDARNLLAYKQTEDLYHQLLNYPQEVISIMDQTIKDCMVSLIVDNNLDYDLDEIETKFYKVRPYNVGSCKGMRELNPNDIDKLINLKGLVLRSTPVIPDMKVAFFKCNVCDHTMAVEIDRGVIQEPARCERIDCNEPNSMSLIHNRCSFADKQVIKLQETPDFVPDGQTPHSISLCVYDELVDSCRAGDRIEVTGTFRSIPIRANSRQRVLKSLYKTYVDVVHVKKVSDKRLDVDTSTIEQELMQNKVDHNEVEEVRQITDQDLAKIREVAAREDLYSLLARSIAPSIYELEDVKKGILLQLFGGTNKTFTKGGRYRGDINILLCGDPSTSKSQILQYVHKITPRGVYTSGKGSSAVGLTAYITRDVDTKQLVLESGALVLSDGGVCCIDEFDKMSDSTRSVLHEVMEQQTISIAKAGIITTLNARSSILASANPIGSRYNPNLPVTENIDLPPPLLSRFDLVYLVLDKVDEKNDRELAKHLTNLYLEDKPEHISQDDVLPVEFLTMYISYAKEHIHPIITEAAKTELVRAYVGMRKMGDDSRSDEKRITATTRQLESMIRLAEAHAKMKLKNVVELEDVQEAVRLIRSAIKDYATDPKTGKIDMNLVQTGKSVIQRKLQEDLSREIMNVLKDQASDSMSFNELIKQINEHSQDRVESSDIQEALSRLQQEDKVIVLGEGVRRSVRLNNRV

[4] = target: T4, Origin Recognition Complex (ORC) (UniProt P54784 1-914; P32833 1-620; P54790 1-616; P54791 1-529; P50874 1-479; P38826 …); assay: as above
T4 construct: Orc1; Orc2; Orc3; Orc4; Orc5; Orc6; in all assays ORC stood with ARS1 DNA; source: Hi-5 cells, baculovirus (Orc1,6; Orc2,5; Orc3,4), purified (ammonium sulphate, SP Sepharose, Mono Q, Superdex 200); copies: + + + + +

[5] = target: T5, MCM2-7 (wild type) (S. cerevisiae, UniProt P29469 1-868; P24279 1-971; P30665 1-933; P29496 1-775; P53091 1-1017; P38132 …); assay: pull-down; pre-RC pulldown: 150 nM ORC, 300 nM Cdc6, 150 nM Cdt1, 150 nM MCM2-7 and 200 nM 290 bp ARS1 DNA in solution, anti-HA beads (HA-Mcm3), low salt wash, HA peptide elution
T5 construct: Mcm2, S. cerevisiae; Mcm3, S. cerevisiae; Mcm4, S. cerevisiae; Mcm5, S. cerevisiae; Mcm6, S. cerevisiae; Mcm7, S. cerevisiae; hetero-hexamer; plasmids and strains are in Supplementary Data 1; also called WT MCM2-7; copies: + + + + +

[6] = target: T6, MCM2-7-ΔC5 (S. cerevisiae, UniProt P29469 1-868; P24279 1-971; P30665 1-933; P29496 1-692; P53091 1-1017; P38132 …); assay: as above
T6 construct: Mcm2, S. cerevisiae; Mcm3, S. cerevisiae; Mcm4, S. cerevisiae; Mcm5, S. cerevisiae, deletion of residues 693-775 (C-terminal extension C5: linker and WHD); Mcm6, S. cerevisiae; Mcm7, S. cerevisiae; also called mcm5 (Δ693-775); copies: + + + + +
T6 sequence (P29469 whole entry, stated change not applied, chain 1 of 3, the tested form may be a part): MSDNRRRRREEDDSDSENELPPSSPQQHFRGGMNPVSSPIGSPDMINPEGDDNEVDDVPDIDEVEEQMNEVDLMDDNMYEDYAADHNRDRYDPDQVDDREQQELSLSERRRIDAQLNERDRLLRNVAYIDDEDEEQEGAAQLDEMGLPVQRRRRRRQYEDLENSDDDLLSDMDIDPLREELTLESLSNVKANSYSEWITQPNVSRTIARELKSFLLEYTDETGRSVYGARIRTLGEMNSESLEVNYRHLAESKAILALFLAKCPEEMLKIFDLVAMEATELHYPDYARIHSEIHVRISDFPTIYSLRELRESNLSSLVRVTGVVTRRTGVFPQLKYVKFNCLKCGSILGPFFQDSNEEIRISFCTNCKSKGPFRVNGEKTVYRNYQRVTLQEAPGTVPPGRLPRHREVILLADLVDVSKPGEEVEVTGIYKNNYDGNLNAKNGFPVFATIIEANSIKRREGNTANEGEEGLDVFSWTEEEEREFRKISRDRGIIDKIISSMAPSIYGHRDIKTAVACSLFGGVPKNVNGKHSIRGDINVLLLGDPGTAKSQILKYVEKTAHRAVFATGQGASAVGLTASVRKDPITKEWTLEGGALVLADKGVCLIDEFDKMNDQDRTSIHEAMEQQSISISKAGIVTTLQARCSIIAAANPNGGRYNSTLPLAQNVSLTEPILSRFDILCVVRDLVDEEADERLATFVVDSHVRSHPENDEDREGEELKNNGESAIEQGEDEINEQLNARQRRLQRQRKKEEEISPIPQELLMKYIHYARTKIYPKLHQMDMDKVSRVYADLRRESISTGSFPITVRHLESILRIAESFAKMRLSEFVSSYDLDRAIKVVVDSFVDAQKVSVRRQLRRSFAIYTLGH
T6 sequence (P24279 whole entry, stated change not applied, chain 2 of 3, the tested form may be a part): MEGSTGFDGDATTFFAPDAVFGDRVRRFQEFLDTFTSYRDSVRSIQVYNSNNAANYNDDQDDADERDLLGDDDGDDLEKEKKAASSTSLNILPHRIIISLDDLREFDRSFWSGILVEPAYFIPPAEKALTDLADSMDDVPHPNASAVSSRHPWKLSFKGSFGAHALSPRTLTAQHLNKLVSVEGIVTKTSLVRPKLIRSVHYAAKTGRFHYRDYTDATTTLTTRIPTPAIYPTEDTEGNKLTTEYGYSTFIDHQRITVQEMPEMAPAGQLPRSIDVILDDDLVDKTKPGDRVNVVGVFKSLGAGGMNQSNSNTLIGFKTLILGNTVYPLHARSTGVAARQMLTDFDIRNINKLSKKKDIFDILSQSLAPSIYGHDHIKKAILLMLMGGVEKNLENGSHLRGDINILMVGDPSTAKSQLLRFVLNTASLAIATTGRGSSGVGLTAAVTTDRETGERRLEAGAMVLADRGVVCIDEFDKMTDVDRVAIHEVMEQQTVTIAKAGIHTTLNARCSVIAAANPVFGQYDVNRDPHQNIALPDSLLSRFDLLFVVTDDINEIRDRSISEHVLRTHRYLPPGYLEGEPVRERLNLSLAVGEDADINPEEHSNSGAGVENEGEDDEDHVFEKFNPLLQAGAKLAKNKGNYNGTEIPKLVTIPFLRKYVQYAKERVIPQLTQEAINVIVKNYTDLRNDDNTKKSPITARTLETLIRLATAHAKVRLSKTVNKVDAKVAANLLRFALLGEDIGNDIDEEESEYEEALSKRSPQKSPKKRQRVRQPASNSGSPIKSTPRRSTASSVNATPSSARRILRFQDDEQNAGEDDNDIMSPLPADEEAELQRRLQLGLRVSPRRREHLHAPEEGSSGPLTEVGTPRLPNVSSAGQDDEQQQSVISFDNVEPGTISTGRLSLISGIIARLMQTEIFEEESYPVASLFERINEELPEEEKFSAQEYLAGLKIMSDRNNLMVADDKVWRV
T6 sequence (P53091 whole entry, stated change not applied, chain 5 of 3, the tested form may be a part): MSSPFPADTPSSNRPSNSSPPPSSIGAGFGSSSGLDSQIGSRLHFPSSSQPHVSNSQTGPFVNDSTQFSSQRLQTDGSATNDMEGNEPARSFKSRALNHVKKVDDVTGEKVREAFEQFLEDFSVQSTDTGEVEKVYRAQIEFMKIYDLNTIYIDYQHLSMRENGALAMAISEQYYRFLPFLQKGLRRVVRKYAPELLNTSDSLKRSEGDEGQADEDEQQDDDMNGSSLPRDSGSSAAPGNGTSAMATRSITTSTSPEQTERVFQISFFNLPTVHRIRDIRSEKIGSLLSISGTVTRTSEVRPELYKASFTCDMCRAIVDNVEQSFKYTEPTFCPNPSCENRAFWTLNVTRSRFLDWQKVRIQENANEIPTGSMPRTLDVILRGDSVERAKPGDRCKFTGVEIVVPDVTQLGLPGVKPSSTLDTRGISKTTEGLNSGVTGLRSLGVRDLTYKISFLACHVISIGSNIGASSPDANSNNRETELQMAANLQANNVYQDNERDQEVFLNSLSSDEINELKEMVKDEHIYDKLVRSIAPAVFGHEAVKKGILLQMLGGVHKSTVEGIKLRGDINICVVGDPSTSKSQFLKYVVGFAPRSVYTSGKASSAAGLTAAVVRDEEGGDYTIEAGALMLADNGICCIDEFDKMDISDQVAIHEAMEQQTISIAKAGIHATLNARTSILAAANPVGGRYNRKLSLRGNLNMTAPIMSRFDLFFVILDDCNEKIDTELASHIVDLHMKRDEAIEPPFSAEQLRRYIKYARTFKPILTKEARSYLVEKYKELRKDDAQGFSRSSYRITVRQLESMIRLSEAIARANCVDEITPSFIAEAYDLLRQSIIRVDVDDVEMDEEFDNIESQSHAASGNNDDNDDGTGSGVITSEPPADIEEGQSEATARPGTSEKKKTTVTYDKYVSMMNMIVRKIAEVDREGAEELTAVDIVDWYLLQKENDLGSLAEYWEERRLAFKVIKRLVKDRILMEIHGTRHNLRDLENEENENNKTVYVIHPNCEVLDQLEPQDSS

T2 sequence (P24279 whole entry): as the sequence (P24279 whole entry, stated change not applied, chain 2 of 3, the tested form may be a part) above
T5 sequence (P29469 whole entry, chain 1 of 3): as the sequence (P29469 whole entry, stated change not applied, chain 1 of 3, the tested form may be a part) above
T5 sequence (P24279 whole entry, chain 2 of 3): as the sequence (P24279 whole entry, stated change not applied, chain 2 of 3, the tested form may be a part) above
T5 sequence (P53091 whole entry, chain 5 of 3): as the sequence (P53091 whole entry, stated change not applied, chain 5 of 3, the tested form may be a part) above

B1: Orc3 (natural protein)
chain: MSDLNQSKKMNVSEFADAQRSHYTVYPSLPQSNKNDKHIPFVKLLSGKESEVNVEKRWELYHQLHSHFHDQVDHIIDNIEADLKAEISDLLYSETTQKRRCFNTIFLLGSDSTTKIELKDESSRYNVLIELTPKESPNVRMMLRRSMYKLYSAADAEEHPTIKYEDINDEDGDFTEQNNDVSYDLSLVENFKRLFGKDLAMVFNFKDVDSINFNTLDNFIILLKSAFKYDHVKISLIFNINTNLSNIEKNLRQSTIRLLKRNYHKLDVSSNKGFKYGNQIFQSFLDTVDGKLNLSDRFVEFILSKMANNTNHNLQLLTKMLDYSLMSYFFQNAFSVFIDPVNVDFLNDDYLKILSRCPTFMFFVEGLIKQHAPADEILSLLTNKNRGLEEFFVEFLVRENPINGHAKFVARFLEEELNITNFNLIELYHNLLIGKLDSYLDRWSACKEYKDRLHFEPIDTIFQELFTLDNRSGLLTQSIFPSYKSNIEDNLLSWEQVLPSLDKENYDTLSGDLDKIMAPVLGQLFKLYREANMTINIYDFYIAFRETLPKEEILNFIRKDPSNTKLLELAETPDAFDKVALILFMQAIFAFENMGLIKFQSTKSYDLVEKCVWRGI
notes: Orc3; subunit of ORC; source: Hi-5 cells, baculovirus, purified as a subunit of ORC
B1: binds [1].

B2: Mcm5 lacking its C-terminus (subunit of MCM2-7-ΔC5) (domain or fragment, S. cerevisiae, UniProt P29496 1-692, looked up)
chain: MSFDRPEIYSAPVLQGESPNDDDNTEIIKSFKNFILEFRLDSQFIYRDQLRNNILVKNYSLTVNMEHLIGYNEDIYKKLSDEPSDIIPLFETAITQVAKRISILSRAQSANNNDKDPENTSMDTDSLLLNSLPTFQLILNSNANQIPLRDLDSEHVSKIVRLSGIIISTSVLSSRATYLSIMCRNCRHTTSITINNFNSITGNTVSLPRSCLSTIESESSMANESNIGDESTKKNCGPDPYIIIHESSKFIDQQFLKLQEIPELVPVGEMPRNLTMTCDRYLTNKVIPGTRVTIVGIYSIYNSKNGAGSGRSGGGNGGSGVAIRTPYIKILGIQSDVETSSIWNSVTMFTEEEEEEFLQLSRNPKLYEILTNSIAPSIFGNEDIKKAIVCLLMGGSKKILPDGMRLRGDINVLLLGDPGTAKSQLLKFVEKVSPIAVYTSGKGSSAAGLTASVQRDPMTREFYLEGGAMVLADGGVVCIDEFDKMRDEDRVAIHEAMEQQTISIAKAGITTVLNSRTSVLAAANPIYGRYDDLKSPGDNIDFQTTILSRFDMIFIVKDDHNEERDISIANHVINIHTGNANAMQNQQEENGSEISIEKMKRYITYCRLKCAPRLSPQAAEKLSSNFVTIRKQLLINELESTERSSIPITIRQLEAIIRITESLAKLELSPIAQERHVDEAIRLFQASTMDAA
notes: Mcm5, S. cerevisiae, deletion of residues 693-775 (C5); also called mcm5ΔC5; mcm5 (Δ693-775); source: S. cerevisiae, galactose-induced, purified as a subunit of MCM2-7-ΔC5 (anti-HA beads, HA peptide, gel filtration)
B2: binds [2].

B3: Mcm7 (natural protein, S. cerevisiae)
chain: MSAALPSIQLPVDYNNLFNEITDFLVTFKQDTLSSDATRNENEDENLDAENIEQHLLEKGPKYMAMLQKVANRELNSVIIDLDDILQYQNEKFLQGTQADDLVSAIQQNANHFTELFCRAIDNNMPLPTKEIDYKDDVLDVILNQRRLRNERMLSDRTNEIRSENLMDTTMDPPSSMNDALREVVEDETELFPPNLTRRYFLYFKPLSQNCARRYRKKAISSKPLSVRQIKGDFLGQLITVRGIITRVSDVKPAVEVIAYTCDQCGYEVFQEVNSRTFTPLSECTSEECSQNQTKGQLFMSTRASKFSAFQECKIQELSQQVPVGHIPRSLNIHVNGTLVRSLSPGDIVDVTGIFLPAPYTGFKALKAGLLTETYLEAQFVRQHKKKFASFSLTSDVEERVMELITSGDVYNRLAKSIAPEIYGNLDVKKALLLLLVGGVDKRVGDGMKIRGDINVCLMGDPGVAKSQLLKAICKISPRGVYTTGKGSSGVGLTAAVMKDPVTDEMILEGGALVLADNGICCIDEFDKMDESDRTAIHEVMEQQTISISKAGINTTLNARTSILAAANPLYGRYNPRLSPLDNINLPAALLSRFDILFLMLDIPSRDDDEKLAEHVTYVHMHNKQPDLDFTPVEPSKMREYIAYAKTKRPVMSEAVNDYVVQAYIRLRQDSKREMDSKFSFGQATPRTLLGIIRLSQALAKLRLADMVDIDDVEEALRLVRVSKESLYQETNKSKEDESPTTKIFTIIKKMLQETGKNTLSYENIVKTVRLRGFTMLQLSNCIQEYSYLNVWHLINEGNTLKFVDDGTMDTDQEDSLVSTPKLAPQTTASANVSAQDSDIDLQDA
notes: Mcm7, S. cerevisiae; subunit of the MCM2-7 hexamer; source: S. cerevisiae, galactose-induced, purified as a subunit of MCM2-7 (anti-HA beads, HA peptide, gel filtration)
B3: binds [2]; binds [3].

B4: Cdc6 (natural protein)
chain: MSAIPITPTKRIRRNLFDDAPATPPRPLKRKKLQFTDVTPESSPEKLQFGSQSIFLRTKALLQKSSELVNLNSSDGALPARTAEYEQVMNFLAKAISEHRSDSLYITGPPGTGKTAQLDMIIRQKFQSLPLSLSTPRSKDVLRHTNPNLQNLSWFELPDGRLESVAVTSINCISLGEPSSIFQKIFDSFQDLNGPTLQIKNMQHLQKFLEPYHKKTTFVVVLDEMDRLLHANTSETQSVRTILELFLLAKLPTVSFVLIGMANSLDMKDRFLSRLNLDRGLLPQTIVFQPYTAEQMYEIVIQKMSSLPTIIFQPMAIKFAAKKCAGNTGDLRKLFDVLRGSIEIYELEKRFLLSPTRGSLNSAQVPLTPTTSPVKKSYPEPQGKIGLNYIAKVFSKFVNNNSTRTRIAKLNIQQKLILCTIIQSLKLNSDATIDESFDHYIKAITKTDTLAPLQRNEFLEICTILETCGLVSIKKTKCKGKTKRFVDKIDVDLDMREFYDEMTKISILKPFLH
notes: Cdc6; also called WT Cdc6; source: E. coli BL21 codon-plus, purified (glutathione-agarose, PreScission Protease, hydroxyapatite)
B4: binds [4]; binds [5]; binds [6].
